Results from publication PMC12199305 (2025).

B1: HDAC7 (enzyme)
chain: MDLRVGQRPPVEPPPEPTLLALQRPQRLHHHLFLAGLQQQRSVEPMRLSMDTPMPELQVGPQEQELRQLLHKDKSKRSAVASSVVKQKLAEVILKKQQAALERTVHPNSPGIPYRTLEPLETEGATRSMLSSFLPPVPSLPSDPPEHFPLRKTVSEPNLKLRYKPKKSLERRKNPLLRKESAPPSLRRRPAETLGDSSPSSSSTPASGCSSPNDSEHGPNPILGSEALLGQRLRLQETSVAPFALPTVSLLPAITLGLPAPARADSDRRTHPTLGPRGPILGSPHTPLFLPHGLEPEAGGTLPSRLQPILLLDPSGSHAPLLTVPGLGPLPFHFAQSLMTTERLSGSGLHWPLSRTRSEPLPPSATAPPPPGPMQPRLEQLKTHVQVIKRSAKPSEKPRLRQIPSAEDLETDGGGPGQVVDDGLEHRELGHGQPEARGPAPLQQHPQVLLWEQQRLAGRLPRGSTGDTVLLPLAQGGHRPLSRAQSSPAAPASLSAPEPASQARVLSSSETPARTLPFTTGLIYDSVMLKHQCSCGDNSRHPEHAGRIQSIWSRLQERGLRSQCECLRGRKASLEELQSVHSERHVLLYGTNPLSRLKLDNGKLAGLLAQRMFVMLPCGGVGVDTDTIWNELHSSNAARWAAGSVTDLAFKVASRELKNGFAVVRPPGHHADHSTAMGFCFFNSVAIACRQLQQQSKASKILIVDWDVHHGNGTQQTFYQDPSVLYISLHRHDDGNFFPGSGAVDEVGAGSGEGFNVNVAWAGGLDPPMGDPEYLAAFRIVVMPIAREFSPDLVLVSAGFDAAEGHPAPLGGYHVSAKCFGYMTQQLMNLAGGAVVLALEGGHDLTAICDASEACVAALLGNRVDPLSEEGWKQKPNLNAIRSLEAVIRVHSKYWGCMQRLASCPDSWVPRVPGADKEEVEAVTALASLSVGILAEDRPSEQLVEEEEPMNL
B2: HDAC4 (enzyme)
chain: MSSQSHPDGLSGRDQPVELLNPARVNHMPSTVDVATALPLQVAPSAVPMDLRLDHQFSLPVAEPALREQQLQQELLALKQKQQIQRQILIAEFQRQHEQLSRQHEAQLHEHIKQQQEMLAMKHQQELLEHQRKLERHRQEQELEKQHREQKLQQLKNKEKGKESAVASTEVKMKLQEFVLNKKKALAHRNLNHCISSDPRYWYGKTQHSSLDQSSPPQSGVSTSYNHPVLGMYDAKDDFPLRKTASEPNLKLRSRLKQKVAERRSSPLLRRKDGPVVTALKKRPLDVTDSACSSAPGSGPSSPNNSSGSVSAENGIAPAVPSIPAETSLAHRLVAREGSAAPLPLYTSPSLPNITLGLPATGPSAGTAGQQDAERLTLPALQQRLSLFPGTHLTPYLSTSPLERDGGAAHSPLLQHMVLLEQPPAQAPLVTGLGALPLHAQSLVGADRVSPSIHKLRQHRPLGRTQSAPLPQNAQALQHLVIQQQHQQFLEKHKQQFQQQQLQMNKIIPKPSEPARQPESHPEETEEELREHQALLDEPYLDRLPGQKEAHAQAGVQVKQEPIESDEEEAEPPREVEPGQRQPSEQELLFRQQALLLEQQRIHQLRNYQASMEAAGIPVSFGGHRPLSRAQSSPASATFPVSVQEPPTKPRFTTGLVYDTLMLKHQCTCGSSSSHPEHAGRIQSIWSRLQETGLRGKCECIRGRKATLEELQTVHSEAHTLLYGTNPLNRQKLDSKKLLGSLASVFVRLPCGGVGVDSDTIWNEVHSAGAARLAVGCVVELVFKVATGELKNGFAVVRPPGHHAEESTPMGFCYFNSVAVAAKLLQQRLSVSKILIVDWDVHHGNGTQQAFYSDPSVLYMSLHRYDDGNFFPGSGAPDEVGTGPGVGFNVNMAFTGGLDPPMGDAEYLAAFRTVVMPIASEFAPDVVLVSSGFDAVEGHPTPLGGYNLSARCFGYLTKQLMGLAGGRIVLALEGGHDLTAICDASEACVSALLGNELDPLPEKVLQQRPNANAVRSMEKVMEIHSKYWRCLQRTTSTAGRSLIEAQTCENEEAETVTAMASLSVGVKPAEKRPDEEPMEEEPPL
B3: HDAC9 (enzyme)
chain: MHSMISSVDVKSEVPVGLEPISPLDLRTDLRMMMPVVDPVVREKQLQQELLLIQQQQQIQKQLLIAEFQKQHENLTRQHQAQLQEHIKELLAIKQQQELLEKEQKLEQQRQEQEVERHRREQQLPPLRGKDRGRERAVASTEVKQKLQEFLLSKSATKDTPTNGKNHSVSRHPKLWYTAAHHTSLDQSSPPLSGTSPSYKYTLPGAQDAKDDFPLRKTASEPNLKVRSRLKQKVAERRSSPLLRRKDGNVVTSFKKRMFEVTESSVSSSSPGSGPSSPNNGPTGSVTENETSVLPPTPHAEQMVSQQRILIHEDSMNLLSLYTSPSLPNITLGLPAVPSQLNASNSLKEKQKCETQTLRQGVPLPGQYGGSIPASSSHPHVTLEGKPPNSSHQALLQHLLLKEQMRQQKLLVAGGVPLHPQSPLATKERISPGIRGTHKLPRHRPLNRTQSAPLPQSTLAQLVIQQQHQQFLEKQKQYQQQIHMNKLLSKSIEQLKQPGSHLEEAEEELQGDQAMQEDRAPSSGNSTRSDSSACVDDTLGQVGAVKVKEEPVDSDEDAQIQEMESGEQAAFMQQPFLEPTHTRALSVRQAPLAAVGMDGLEKHRLVSRTHSSPAASVLPHPAMDRPLQPGSATGIAYDPLMLKHQCVCGNSTTHPEHAGRIQSIWSRLQETGLLNKCERIQGRKASLEEIQLVHSEHHSLLYGTNPLDGQKLDPRILLGDDSQKFFSSLPCGGLGVDSDTIWNELHSSGAARMAVGCVIELASKVASGELKNGFAVVRPPGHHAEESTAMGFCFFNSVAITAKYLRDQLNISKILIVDLDVHHGNGTQQAFYADPSILYISLHRYDEGNFFPGSGAPNEVGTGLGEGYNINIAWTGGLDPPMGDVEYLEAFRTIVKPVAKEFDPDMVLVSAGFDALEGHTPPLGGYKVTAKCFGHLTKQLMTLADGRVVLALEGGHDLTAICDASEACVNALLGNELEPLAEDILHQSPNMNAVISLQKIIEIQSMSLKFS

Columns and labels:
MEF2A [1] = target: T1, MEF2A (human, UniProt Q02078 1-507); test: SPR
MEF2A [2] = target: T1, MEF2A; test: SPR; remark: listed apart in the source

T1 sequence (Q02078 whole entry): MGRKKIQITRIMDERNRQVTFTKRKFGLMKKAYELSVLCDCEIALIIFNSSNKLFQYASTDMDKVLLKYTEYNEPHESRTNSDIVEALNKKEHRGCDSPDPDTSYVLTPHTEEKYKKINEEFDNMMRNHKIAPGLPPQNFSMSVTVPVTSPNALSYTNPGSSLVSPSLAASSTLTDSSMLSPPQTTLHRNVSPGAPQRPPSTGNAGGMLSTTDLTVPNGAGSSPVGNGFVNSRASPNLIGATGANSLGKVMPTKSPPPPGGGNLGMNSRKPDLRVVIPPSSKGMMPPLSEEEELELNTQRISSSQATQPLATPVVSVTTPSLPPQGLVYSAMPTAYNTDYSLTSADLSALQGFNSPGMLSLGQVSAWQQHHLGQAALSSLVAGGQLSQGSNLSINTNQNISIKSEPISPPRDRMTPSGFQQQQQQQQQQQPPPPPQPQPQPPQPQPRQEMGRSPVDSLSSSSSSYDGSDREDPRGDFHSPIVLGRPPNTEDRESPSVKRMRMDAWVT

Row | Binder | koff (MEF2A [1]) | Kd (MEF2A [2])
1 | B1 | 0.00082 s⁻¹ | 3.5 nM
2 | B2 | 0.0025 s⁻¹ | 5 nM
3 | B3 | 0.0082 s⁻¹ | 19.1 nM
